Measured values: the nanobody polyreactivity screen of Harvey et al. (2022)

Assay: yeast display, Sf9 membrane polyspecificity reagent, FACS + sequencing; frameworks hold sequencing errors
Outline: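 Synthetic nanobody libraries on Saccharomyces cerevisiae BJ5465 were galactose-induced for 36–48 hours, stained 1 hour at 4 °C with 10% biotinylated, detergent-solubilized Sf9 membrane reagent and enriched on streptavidin microbeads. FACS then separated cells into low and high (top ~1%) gates by anti-HA (expression) and streptavidin (reagent binding) fluorescence. Genes were colony-PCR amplified, MiSeq 2 × 250 sequenced and CDR-length filtered. A clone's polyreactivity label is that of its gate of origin.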

Sequence	polyreactivity (PSR sort gate)
QVQLVESGGGLVQAGGSLRLSCAASGFTFRAYAMGWYRQAPGKERELVAGISGSGGRTYYADSVKGRFTISRDNAKNTVYLQMNSLKPEDTAVYYCAAEYRLYGYQYDYWGQGTQVTVSS	high polyreactivity
QVQLVESGGGLVQAGGSLRLSCAASGFTFRAYAMGWYRQAPGKERELVATITRSGGSTFYADSVKGRFTISRDNAKNTVYLQMNSLKPEDTAVYYCAAVYRFPCRYAWYKYDDWGQGTQVTVSS	high polyreactivity
QVQLVESGGGLVQAGGSLRLSCAASGFTFRAYTMGWYRQAPGKERELVAAITYSGGPTYYADSVKGRFTISRDNAKNTVYLQMNSLKPEDTAVYYCAKRGWALSEYYYWGQGTQVTVSS	high polyreactivity
QVQLVESGGGLVQAGGSLRLSCAASGFTFRDYAMGWYRPAPGKERELVAAITRSGGRTYYADSVKGRFTISRDNAKNTVYLQMNSLKPEDTAVYYCAAQLPYYGYDYWGQGTQVTVSS	low polyreactivity
QVQLVESGGGLVQAGGSLRLSCAASGFTFRFNAMGWYRQAPGKERELVAAIRQSGGSTYYADSVKGRFTISRDTAKNTVSLQMNSLKPEDTAVYYCATGRSRIRNFGYWGQGTQVTVSS	high polyreactivity
QVQLVESGGGLVQAGGSLRLSCAASGFTFRFNAMGWYRQAPGKERELVAAIRYSSGSTYYADSVKGRFTISRDNAKNTVYLEMNSLKPEDTAVYYCAAEQDYNRGYVTGRYYYWGQGTQVTVSS	high polyreactivity
QVQLVESGGGLVQAGGSLRLSCAASGFTFRFYAMGWYRQAPGKERELVAAISRSGGDTYYADSVKGRFTISRDNAKNTVYLQMNSLKPEDTAVYYCNKATYRVAGRDFDYWGHGTQVTVSS	high polyreactivity
QVQLVESGGGLVQAGGSLRLSCAASGFTFRFYAMGWYRQAPGKERELVAAISRSGGDTYYADSVKGRFTISRDNAKNTVYLQRNRLIPEDTAVYYCNKATYRVAGRDFDYWGQGTQVTVSS	high polyreactivity
QVQLVESGGGLVQAGGSLRLSCAASGFTFRFYAMGWYRQAPGKERELVAAISSSSSSTYYADSVKGRFTISRDNAKNTVYLQMNSLKPEDTAVYYCNAGGYTRGDYWGQGTQVTVSS	high polyreactivity
QVQLVESGGGLVQAGGSLRLSCAASGFTFRFYAMGWYRQAPGKERELVAAISYNGGSTYYADSVKGRFTISRDNAKNTVYLQMNSLKPEDTAVYYCAAGYYWQYTSSSAQYAYDYWGQGTQVTVSS	low polyreactivity
QVQLVESGGGLVQAGGSLRLSCAASGFTFRGNAMGWYRQAPGKERELVATISRGGNTNYADSVKGRFTISRDNAKNTVYLQMNSLKPEDTAVYYCAAVSYIRSKVAYNYWGQGTQVTVSS	low polyreactivity
QVQLVESGGGLVQAGGSLRLSCAASGFTFRGNVMGWYRQAPGKERELVAGISSTGSTYYADSVKGRFTISRDNAKNTVYLQMYSVKPVDTAVYYCAAAAIYFRYDYWGQGTQVTVSS	high polyreactivity
QVQLVESGGGLVQAGGSLRLSCAASGFTFRGYAMGWYRQAPGKERELVAAISNGGGTNYADSVKGRFTISRDNAKNTVYLQMNSLKPEDTAVYYCNAPGYRAENPGFDYWGQGTQVTVSS	high polyreactivity
QVQLVESGGGLVQAGGSLRLSCAASGFTFRGYTIGWYRQAPGKERELVAAITWSGGSTYYADSVKGRFTISRDNAKNTVYLQMNSLKPEDTAVYYCASYAWYGYVYHHLYDYWGQGTQVTVSS	high polyreactivity
QVQLVESGGGLVQAGGSLRLSCAASGFTFRIYTMVWYRPAPRKERELVAAISSRGGSTYYADSVKGRFTISRDNAKNTVYLQMNSLKPEDTAVYYCAASGRVYSSGYDYWGQGTQVTVSS	high polyreactivity
QVQLVESGGGLVQAGGSLRLSCAASGFTFRKYVMGWYRQAPGKERELVAGISRSGSRTYYADSVKGRFTISRDNAKNTVYLQMNSLKPEDTAVYYCAADAAHSEYDYWGQGTQVTVSS	high polyreactivity
QVQLVESGGGLVQAGGSLRLSCAASGFTFRPYAMGWYRQAPGKERELVAAISTSGATTYYADSVKGRFTISRDNAKITVYLQMNSLKPEDTAVYYCNKVYWHHPWEYGYWGQGTQVTVSS	high polyreactivity
QVQLVESGGGLVQAGGSLRLSCAASGFTFRQYAMGWYRQAPGKERELVAAISRSGSRTYYADSVKGRFTISRDNAKNTVYLQMNSLKPEDTAVYYCAARSYYNGKISRVGYWGQGTQVTVSS	high polyreactivity
QVQLVESGGGLVQAGGSLRLSCAASGFTFRRNAMGWYRQAPGKERELVAAITYNGGTTYYADSVKGRFTISRDYAKNTVYLQMNSLKPVDTAVYYCNAPYGRQGYDYWGQGTQVTVSS	low polyreactivity
QVQLVESGGGLVQAGGSLRLSCAASGFTFRRNAMGWYRQAPGKERELVAVITSSARTNYADSVKGRFTISRDNAKNTVYLQMNSLKPEDTAVYYCNAYRYRQSSSDKYGYWGQGTQVTVSS	high polyreactivity
QVQLVESGGGLVQAGGSLRLSCAASGFTFRRNTMGWYRQEPGKERELVAAITQRGGSTYYADSVKGRFTISRDNAKNTVYLQMNSLKPEDTAVYYCAVERHSYIYKYDYWGQGTQVTVSS	high polyreactivity
QVQLVESGGGLVQAGGSLRLSCAASGFTFRRYALGWYRQAPGKERELVAGITGRGGSTYYADSVKGRFTISRDNAKNTVYLQMNSLKPEDTAVYYCNKPRAARGYMTGQLDYWGQGTQVTVSS	high polyreactivity

Sequence	polyreactivity (PSR sort gate)
QVQLVESGGGLVQAGGSLRLSCAASGFTFRRYAMGWYRLAPGKERELVAAISQSGGRTYYADSVKGRFTISRDNAKNTVYLQMNSLKPEDTAVYNFAKDAAGGRHYDYWGQGTQVTVSS	high polyreactivity
QVQLVESGGGLVQAGGSLRLSCAASGFTFRRYAMGWYRQAPGKEREFVAAITRSSGRTYYADSVKGRFTISRDNAKNTVYLQMNSLKPEDTAVYYCNRDTSIRHYNYWGQGTQVTVSS	high polyreactivity
QVQLVESGGGLVQAGGSLRLSCAASGFTFRRYAMGWYRQAPGKERELVAAISNGGSTYYADSVKGRFTISRDNAKNTVYLQMNSLKPEDTAVYYCAADIYSYFWWPYYYWGQGTQVTVSS	high polyreactivity
QVQLVESGGGLVQAGGSLRLSCAASGFTFRRYAMGWYRQAPGKERELVAAITRDDSTNYADSVKGRFTISRDNAKNTVYLQMNSLKPEDTAVYYCAARLWYPYYYWGQGTQVTVSS	high polyreactivity
QVQLVESGGGLVQAGGSLRLSCAASGFTFRRYAMGWYRQAPGKERELVATITIGGSTSYADSVKGRFTISRDNAKNTVYLQMNSLKPEDTAVYYCAAVANPNRYRFDYWGQGSQVTVSS	high polyreactivity
QVQLVESGGGLVQAGGSLRLSCAASGFTFRRYAMGWYRQAPGKERVLVAAISRGGSSTYYADSVKGRFTISRDNAKNTVYLQMNSLKPEDTAVYYCNARTYVALGFNYWGQGTQVTVSS	high polyreactivity
QVQLVESGGGLVQAGGSLRLSCAASGFTFRRYDMGWYRQAPGKERELVATINRGGSTDYADSVKGRFTISRDNAKNTVYLQMNSLKPEDNAVYYCAADSYSTCADDYWGQGTQVTVSS	high polyreactivity
QVQLVESGGGLVQAGGSLRLSCAASGFTFRRYTMGWYRQAPGKERELVAAISRSGGSTFYADSVKGRFTISRDYAKNTVYLQMNSLKPEDTAVYYCNAGRTYTALNGDYWGQGTQVTVSS	high polyreactivity
QVQLVESGGGLVQAGGSLRLSCAASGFTFRSYAMGWYRQAPGKERELVASISWSGTSTYYADSVKGRFTISRDNAKNTVYLQMNSLKPEDTAVYYCNKYPSFYGAGYYWGQGTQVTVSS	high polyreactivity
QVQLVESGGGLVQAGGSLRLSCAASGFTFRSYAMGWYRQAPGKERELVAVISSSGGSTYYADSVKGRFTISRDNAKNTVYLQMNSLKPEDTAVYYCNRRPATRAYLYDYWGQGTQVTVSS	high polyreactivity
QVQLVESGGGLVQAGGSLRLSCAASGFTFRTNAMGWYRQAPGKERELVAAISTGARTYYADSVKGRFTISRDNAKNTVYLQMNSLKPEDTAVYYCNKVLRRFLSRYDYWGQGTQVTVSS	high polyreactivity
QVQLVESGGGLVQAGGSLRLSCAASGFTFRTNLMVWYRQAPGKERELVAVITRDGGSTYYADSVKGRFTISRDHAKNTVYLQINSLKPEDTAVYYCNAAAFINFILYDYWGQGTQVTVSS	high polyreactivity
QVQLVESGGGLVQAGGSLRLSCAASGFTFRTYAMGWYTQAPGKERELVADISGSGGSTYYADSVKGRFTISRDNAKNTVYLQMNSLKPEDTAVYYCAADYASWSNWGYEYWGQGTQVTVSS	high polyreactivity
QVQLVESGGGLVQAGGSLRLSCAASGFTFRTYGMGWYSQAPGKERELVAAISRSSATTYYADSVKGRFTISRDNAKTTVYLQINSLKPEDTAVYYCNAGDLGRRWGMDYSGQGTQVTVSS	low polyreactivity
QVQLVESGGGLVQAGGSLRLSCAASGFTFRVYAMGWYRQAPGKERDLVAPISLRGDRTYYADSVKGRFTISRDYAKNTEYLQMNRLKPEDTAVYYCHAYASYQISQDDYDYWGQGTQVTVSS	high polyreactivity
QVQLVESGGGLVQAGGSLRLSCAASGFTFRVYAMGWYRQAPGKERELVAAISSGGSTNYADSVKGRFTISRDNAKNTVYLQMNSLKPEDTAVYYCAARQRYYSERPQYSGFYYWGQGTQVTVSS	high polyreactivity
QVQLVESGGGLVQAGGSLRLSCAASGFTFRVYAMGWYRQAPGKERELVAAITSGSSTTYADSVKGRFTISRDNAKNTVYLQLNSLKPEDTAVYYCNARRRGRVTGSYGYWGQGTQVTVSS	high polyreactivity
QVQLVESGGGLVQAGGSLRLSCAASGFTFRWNAMGWYRQAPGKERELVAAITNDDSTYYADSVKGRFTISRDNAKNTVYLQMNSLKPEDTAVYYCNARYGRYLDLDTGVALAGRGYWGQGTQVSVSS	low polyreactivity
QVQLVESGGGLVQAGGSLRLSCAASGFTFRWYAMGWYRQEPGKERELVAAITSSGGRTYYADSVKGRFTISRDNAKNTVYLQMNSMKPEDTAVYYCATDLRTRKYDYWGQGTQVTVSS	high polyreactivity
QVQLVESGGGLVQAGGSLRLSCAASGFTFRWYTMGWYRQAPGKERELVASIRYGGGSTYYADSVKGRFTISRDNAKNTVYLQMNSLNPEDTAVYYCAAESAWTSPYDYWGQGTQVTVSS	high polyreactivity
QVQLVESGGGLVQAGGSLRLSCAASGFTFRYNAMGWYRQAPGKERELVAAISSDGITSYADSVKGRFTISRDNAKNTVYLQMNSLKPEDTAVYYCAADWRWYSAWHFGYWGQGTQVTVSS	high polyreactivity
